From patent US20180185504A1

Assays:
[1] = target: mouse PRLR construct with an HA tag on HEK293/mPRLR cells (mouse) (UniProt Q08501); assay: FACS on HEK293/mPRLR cells
[2] = target: human prolactin (PRL) (human) (UniProt P01236); assay: ELISA: dimeric PRLR (3.38 pM to 200 nM) on plate-coated human PRL (1 µg/mL), HRP anti-Fc-gamma detection
[3] = target: human prolactin receptor (PRLR) on cells (human) (UniProt P16471); assay: cell-based or functional assay
Chain of human prolactin receptor (PRLR) on cells (human) (P16471 25-622 limits assumed): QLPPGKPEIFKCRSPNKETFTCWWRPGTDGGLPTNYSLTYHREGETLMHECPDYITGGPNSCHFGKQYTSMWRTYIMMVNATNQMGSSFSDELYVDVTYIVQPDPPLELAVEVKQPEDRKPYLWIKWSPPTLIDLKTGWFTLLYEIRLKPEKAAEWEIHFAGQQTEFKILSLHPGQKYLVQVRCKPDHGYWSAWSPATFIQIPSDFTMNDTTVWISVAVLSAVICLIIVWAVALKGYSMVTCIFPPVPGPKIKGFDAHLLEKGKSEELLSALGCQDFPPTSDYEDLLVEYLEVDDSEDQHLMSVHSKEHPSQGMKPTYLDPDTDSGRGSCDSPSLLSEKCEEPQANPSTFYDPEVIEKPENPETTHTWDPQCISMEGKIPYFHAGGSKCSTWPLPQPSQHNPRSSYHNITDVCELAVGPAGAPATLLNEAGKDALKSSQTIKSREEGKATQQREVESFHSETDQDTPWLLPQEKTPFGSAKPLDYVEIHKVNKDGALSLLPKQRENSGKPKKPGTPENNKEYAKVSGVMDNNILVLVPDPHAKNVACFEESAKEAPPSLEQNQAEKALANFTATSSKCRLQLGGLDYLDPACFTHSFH

Chain of human prolactin (PRL) (human) (P01236 29-227 limits assumed): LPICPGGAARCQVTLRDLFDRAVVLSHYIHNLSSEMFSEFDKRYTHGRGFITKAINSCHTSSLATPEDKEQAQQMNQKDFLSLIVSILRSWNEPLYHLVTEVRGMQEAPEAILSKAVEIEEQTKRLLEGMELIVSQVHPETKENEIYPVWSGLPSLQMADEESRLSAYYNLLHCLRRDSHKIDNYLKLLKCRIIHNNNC
Chain of mouse PRLR construct with an HA tag on HEK293/mPRLR cells (mouse) (Q08501 20-608): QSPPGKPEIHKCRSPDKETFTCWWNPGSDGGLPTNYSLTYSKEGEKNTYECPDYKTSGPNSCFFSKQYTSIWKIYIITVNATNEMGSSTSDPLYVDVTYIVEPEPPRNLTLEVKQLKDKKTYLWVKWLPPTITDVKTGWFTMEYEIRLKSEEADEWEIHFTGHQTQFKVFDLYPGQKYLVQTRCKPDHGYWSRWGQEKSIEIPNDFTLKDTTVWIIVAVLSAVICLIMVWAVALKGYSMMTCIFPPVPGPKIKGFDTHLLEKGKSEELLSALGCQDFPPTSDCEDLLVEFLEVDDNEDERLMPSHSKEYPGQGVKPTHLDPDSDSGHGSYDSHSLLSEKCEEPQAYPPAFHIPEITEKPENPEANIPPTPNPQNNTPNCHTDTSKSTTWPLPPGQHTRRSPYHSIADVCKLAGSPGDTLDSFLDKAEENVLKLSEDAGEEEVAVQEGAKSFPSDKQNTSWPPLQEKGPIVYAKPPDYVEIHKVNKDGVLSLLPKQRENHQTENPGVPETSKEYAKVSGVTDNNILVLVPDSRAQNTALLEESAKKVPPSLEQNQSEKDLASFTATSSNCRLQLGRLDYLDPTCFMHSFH

**Q.** For Isotype Ctrl I (antibody), which FACS Cell Binding (Fold Above Background) [1] is on record?
**A.** Its FACS Cell Binding (Fold Above Background) is 1 fold.

**Q.** For “dimeric form of cynomolgus monkey (Macaca fascicularis) PRLR (Example 12 ELISA) (Fc fusion)”, which EC50 [2] is on record?
**A.** The EC50 was 5.7 nM.

**Q.** For “human prolactin (PRL) (from UniProt P01236 29-227) (ligand)”, which EC50, STAT5-luciferase reporter in HEK293/PRLR/STAT5-Luc cells [3] is on record?
**A.** Its EC50, STAT5-luciferase reporter in HEK293/PRLR/STAT5-Luc cells is 2.1 nM.
